Assay results: patent publication US9441223

Molecular target: TDP-43 (Homo sapiens) (UniProt Q13148)
Conditions: reanalysis of public CLIP-seq; healthy brain; ratio rises to 2.0 in FTLD

Sequence of TDP-43 (Homo sapiens) (Q13148 whole entry): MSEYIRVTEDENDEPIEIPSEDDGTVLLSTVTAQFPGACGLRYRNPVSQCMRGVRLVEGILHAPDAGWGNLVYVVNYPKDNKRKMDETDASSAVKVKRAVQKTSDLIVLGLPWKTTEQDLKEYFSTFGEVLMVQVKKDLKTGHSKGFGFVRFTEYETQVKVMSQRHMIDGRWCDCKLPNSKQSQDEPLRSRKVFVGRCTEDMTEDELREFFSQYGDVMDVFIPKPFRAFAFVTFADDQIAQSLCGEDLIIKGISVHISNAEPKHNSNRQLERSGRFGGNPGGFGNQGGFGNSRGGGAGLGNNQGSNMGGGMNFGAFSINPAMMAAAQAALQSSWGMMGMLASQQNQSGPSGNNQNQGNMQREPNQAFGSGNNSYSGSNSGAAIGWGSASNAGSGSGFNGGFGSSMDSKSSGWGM

## UGUGU [UGUGU pentamer motif]
  binding signal (RefGene/repeat motif enrichment ratio): 1.3
